According to publication PMC10288592:

Target: PYCO1(452 to 592) (Phaeodactylum tricornutum)
Experiment: cryo-EM structure; single particle cryo-EM of the Rubisco–PYCO1(452 to 592) complex

stoichiometry N: 4
Substance: PYCO1(452 to 592) (domain or fragment)
